These are literature values, as cited in US12509496B2 (Shanghai Minwei Biotechnology Co., LTD, priority 2020, dated 2025).

For the data set the following is noted: in the blood; cited from earlier work.

Turning to dulaglutide, the half-life in vivo is 108 to 113 h.
